Test [1] addresses T1, human CLLD8 protein (human, UniProt Q96T68 1-719, limits assumed).
T1 sequence: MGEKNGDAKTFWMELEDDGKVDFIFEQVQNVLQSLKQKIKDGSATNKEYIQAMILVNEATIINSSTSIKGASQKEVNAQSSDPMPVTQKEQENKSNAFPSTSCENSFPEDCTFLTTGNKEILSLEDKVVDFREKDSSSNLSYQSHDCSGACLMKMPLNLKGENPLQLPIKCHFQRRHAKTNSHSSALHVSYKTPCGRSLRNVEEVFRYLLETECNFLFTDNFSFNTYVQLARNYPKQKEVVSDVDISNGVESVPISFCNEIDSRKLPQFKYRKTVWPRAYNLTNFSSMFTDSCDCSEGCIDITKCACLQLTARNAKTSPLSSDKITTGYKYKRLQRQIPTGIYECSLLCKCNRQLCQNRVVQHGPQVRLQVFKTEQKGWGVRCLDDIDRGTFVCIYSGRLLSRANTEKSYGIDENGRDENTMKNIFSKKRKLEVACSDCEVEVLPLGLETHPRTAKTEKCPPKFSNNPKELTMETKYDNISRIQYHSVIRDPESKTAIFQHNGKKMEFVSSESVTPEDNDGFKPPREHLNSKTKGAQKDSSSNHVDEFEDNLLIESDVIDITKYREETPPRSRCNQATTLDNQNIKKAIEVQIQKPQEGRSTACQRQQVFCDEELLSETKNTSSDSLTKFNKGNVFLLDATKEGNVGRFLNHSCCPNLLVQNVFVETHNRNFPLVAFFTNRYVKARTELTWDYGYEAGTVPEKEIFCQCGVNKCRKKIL
Description: cell-based or functional assay.

Test [2] concerns the target T1, human CLLD8 protein. Description: cell-based or functional assay. The source holds these as a separate data set.

Ends that are not written are not given here.

In the case of AMHGHHGWPWGMEQGCTPLG (also: expressed as BFP-peptide fusion via alpha-helical linker, bait in pGBKT7) [peptide CL02A3 wt], in test [1], the “reporter ratio (GFP under germline ε promoter, A5T4 reporter line)” value stood at 1.62. For the same molecule, in test [2], the “endogenous ε inhibition ratio (TAQMAN quantitative PCR of ε transcription product, +IL-4/+Dox to +IL-4/-Dox)” value was found to be 2.82 and the “reporter ratio (original clone screen, +IL-4/+Dox over +IL-4/-Dox GFP fluorescence)” value was 1.55.

In the case of AMHGHHGWPWGMEQGCTPAA [peptide CL02A3LG], the “reporter ratio (GFP under germline ε promoter, A5T4 reporter line)” value in test [1] stood at 1.99.

As to AMHGHHAAPWGMEQGCTPLG [peptide CL02A3GW], the “reporter ratio (GFP under germline ε promoter, A5T4 reporter line)” value in test [1] is 1.16.

For the molecule RAHGHHGWPWGMEQGCTPLG [peptide CL02A3AM], the “reporter ratio (GFP under germline ε promoter, A5T4 reporter line)” value in test [1] was 1.03.

For the origin of these results see patent US20040014638A1 (RIGEL PHARMACEUTICALS, published 2004).
